# Results taken from publication PMC10786891, “Massively parallel profiling of RNA-targeting CRISPR-Cas13d”.
# Changes are numbered by the printed parent chain. Numbers in names are those of the source.
# T1: EsCas13d, nuclease-dead (Eubacterium siraeum, UniProt B0MS50, R295A;H300A;R849A;H854A)
# T1 sequence: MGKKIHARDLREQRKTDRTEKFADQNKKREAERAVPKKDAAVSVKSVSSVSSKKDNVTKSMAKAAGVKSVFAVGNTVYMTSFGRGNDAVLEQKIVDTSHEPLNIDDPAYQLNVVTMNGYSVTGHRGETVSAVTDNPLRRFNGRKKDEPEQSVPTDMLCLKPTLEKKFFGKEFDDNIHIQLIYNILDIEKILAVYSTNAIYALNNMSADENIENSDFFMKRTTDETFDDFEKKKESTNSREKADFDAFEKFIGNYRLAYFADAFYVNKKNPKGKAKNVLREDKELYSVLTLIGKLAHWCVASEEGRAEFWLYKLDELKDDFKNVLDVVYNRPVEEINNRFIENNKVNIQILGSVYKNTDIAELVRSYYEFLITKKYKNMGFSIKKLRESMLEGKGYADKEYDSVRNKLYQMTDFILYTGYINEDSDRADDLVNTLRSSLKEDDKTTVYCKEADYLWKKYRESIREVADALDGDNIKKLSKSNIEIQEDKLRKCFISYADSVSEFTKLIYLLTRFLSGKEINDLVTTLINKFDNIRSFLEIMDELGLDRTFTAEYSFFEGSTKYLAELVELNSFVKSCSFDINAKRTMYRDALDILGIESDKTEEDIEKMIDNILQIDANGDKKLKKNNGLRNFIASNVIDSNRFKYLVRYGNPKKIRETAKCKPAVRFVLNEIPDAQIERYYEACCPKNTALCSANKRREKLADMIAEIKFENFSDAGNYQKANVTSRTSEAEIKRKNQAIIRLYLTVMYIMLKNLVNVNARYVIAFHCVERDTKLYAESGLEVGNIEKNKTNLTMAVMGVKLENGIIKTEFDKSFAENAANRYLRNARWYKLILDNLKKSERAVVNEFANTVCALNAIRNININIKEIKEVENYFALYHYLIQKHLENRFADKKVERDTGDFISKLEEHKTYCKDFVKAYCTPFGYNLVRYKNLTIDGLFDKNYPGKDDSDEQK
# B1: target 1 MT 5'PFS GUU 3'PFS CGC (mixed)
# RNA 1: CACCCGUGCAAAAAUGCAGGGGUCUAAAACUGAGCGGAUAACCUCUCUAUGG
# RNA 2: GGGAAUGGAUCCACAUCUACGAAUUCGUUCCAUAGAGAGGUUAUCCGCUCACGCAGAUCGGAAGAGCACACGU
# B2: target 1 MT 5'PFS UUG 3'PFS CUU (mixed)
# RNA 1: B1 RNA 1
# RNA 2: B1 RNA 2 with G27U, U29G, G53U, C54U
# B3: target 1 insG 3' of 20,insA 3' of 10 (mixed)
# RNA 1: B1 RNA 1
# RNA 2: GGGAAUGGAUCCACAUCUACGAAUUCGUACCAGUAGAGAGGUUAAUCCGCUCACCGAGAUCGGAAGAGCACACGU
# B4: target 1 MT 5'PFS GUU 3'PFS CGG (mixed)
# RNA 1: B1 RNA 1
# RNA 2: B1 RNA 2 with C54G
# B5: target 1 MT 5'PFS CCA 3'PFS CGG (mixed)
# RNA 1: B1 RNA 1
# RNA 2: B1 RNA 2 with G27C, U28C, U29A, C54G
# B6: target 1 MT 5'PFS UUG 3'PFS CUA (mixed)
# RNA 1: B1 RNA 1
# RNA 2: B1 RNA 2 with G27U, U29G, G53U, C54A
# B7: target 1 MT 5'PFS GUU 3'PFS CGU (mixed)
# RNA 1: B1 RNA 1
# RNA 2: B1 RNA 2 with C54U
# B8: target 1 MT 5'PFS UUG 3'PFS CUG (mixed)
# RNA 1: B1 RNA 1
# RNA 2: B1 RNA 2 with G27U, U29G, G53U, C54G
# B9: target 1 MT 5'PFS UAG 3'PFS GAG (mixed)
# RNA 1: B1 RNA 1
# RNA 2: B1 RNA 2 with G27U, U28A, U29G, C52G, G53A, C54G
# B10: target 1 MT 5'PFS CAU 3'PFS CUA (mixed)
# RNA 1: B1 RNA 1
# RNA 2: B1 RNA 2 with G27C, U28A, G53U, C54A
# B11: target 1 MT 5'PFS GAC 3'PFS UAG (mixed)
# RNA 1: B1 RNA 1
# RNA 2: B1 RNA 2 with U28A, U29C, C52U, G53A, C54G
# B12: target 1 MT 5'PFS CAU 3'PFS CUC (mixed)
# RNA 1: B1 RNA 1
# RNA 2: B1 RNA 2 with G27C, U28A, G53U
# B13: target 1 MT 5'PFS GAC 3'PFS UAA (mixed)
# RNA 1: B1 RNA 1
# RNA 2: B1 RNA 2 with U28A, U29C, C52U, G53A, C54A
# B14: target 1 G5U,G13C (mixed)
# RNA 1: B1 RNA 1
# RNA 2: B1 RNA 2 with U29A, G39C, G47U, G53C, C54G
# B15: target 1 MT 5'PFS GAC 3'PFS UAC (mixed)
# RNA 1: B1 RNA 1
# RNA 2: B1 RNA 2 with U28A, U29C, C52U, G53A
# B16: target 1 MT 5'PFS UUA 3'PFS UAG (mixed)
# RNA 1: B1 RNA 1
# RNA 2: B1 RNA 2 with G27U, U29A, C52U, G53A, C54G
# B17: target 1 MT 5'PFS GAC 3'PFS UAU (mixed)
# RNA 1: B1 RNA 1
# RNA 2: B1 RNA 2 with U28A, U29C, C52U, G53A, C54U
# B18: target 1 MT 5'PFS UUA 3'PFS UAC (mixed)
# RNA 1: B1 RNA 1
# RNA 2: B1 RNA 2 with G27U, U29A, C52U, G53A
# B19: target 1 MT 5'PFS UUA 3'PFS UAA (mixed)
# RNA 1: B1 RNA 1
# RNA 2: B1 RNA 2 with G27U, U29A, C52U, G53A, C54A
# B20: target 1 MT 5'PFS UUA 3'PFS CUG (mixed)
# RNA 1: B1 RNA 1
# RNA 2: B1 RNA 2 with G27U, U29A, G53U, C54G
# B21: target 1 MT 5'PFS UUA 3'PFS CUC (mixed)
# RNA 1: B1 RNA 1
# RNA 2: B1 RNA 2 with G27U, U29A, G53U
# B22: target 1 MT 5'PFS UUA 3'PFS CUA (mixed)
# RNA 1: B1 RNA 1
# RNA 2: B1 RNA 2 with G27U, U29A, G53U, C54A
# B23: target 1 MT 5'PFS CCG 3'PFS UCG (mixed)
# RNA 1: B1 RNA 1
# RNA 2: B1 RNA 2 with G27C, U28C, U29G, C52U, G53C, C54G
# B24: target 1 MT 5'PFS GGC 3'PFS CCU (mixed)
# RNA 1: B1 RNA 1
# RNA 2: B1 RNA 2 with U28G, U29C, G53C, C54U
# B25: target 1 insA 3' of 8,insA 3' of 6 (mixed)
# RNA 1: B1 RNA 1
# RNA 2: GGGAAUGGAUCCACAUCUACGAAUUCGUACCAUAGAGAGGUUAUACCAGCUCACCGAGAUCGGAAGAGCACACGU
# B26: target 1 MT 5'PFS CCG 3'PFS UCC (mixed)
# RNA 1: B1 RNA 1
# RNA 2: B1 RNA 2 with G27C, U28C, U29G, C52U, G53C
# B27: target 1 MT 5'PFS GGU 3'PFS CCU (mixed)
# RNA 1: B1 RNA 1
# RNA 2: B1 RNA 2 with U28G, G53C, C54U
# B28: target 1 MT 5'PFS GUC 3'PFS AGC (mixed)
# RNA 1: B1 RNA 1
# RNA 2: B1 RNA 2 with U29C, C52A
# B29: target 1 MT 5'PFS GUC 3'PFS AGA (mixed)
# RNA 1: B1 RNA 1
# RNA 2: B1 RNA 2 with U29C, C52A, C54A
# B30: target 1 MT 5'PFS GUC 3'PFS AGG (mixed)
# RNA 1: B1 RNA 1
# RNA 2: B1 RNA 2 with U29C, C52A, C54G
# B31: target 1 MT 5'PFS GUC 3'PFS AGU (mixed)
# RNA 1: B1 RNA 1
# RNA 2: B1 RNA 2 with U29C, C52A, C54U
# B32: target 1 MT 5'PFS GCG 3'PFS CCU (mixed)
# RNA 1: B1 RNA 1
# RNA 2: B1 RNA 2 with U28C, U29G, G53C, C54U
# B33: target 1 MT 5'PFS GCG 3'PFS CCG (mixed)
# RNA 1: B1 RNA 1
# RNA 2: B1 RNA 2 with U28C, U29G, G53C, C54G
# B34: target 1 MT 5'PFS AUA 3'PFS ACU (mixed)
# RNA 1: B1 RNA 1
# RNA 2: B1 RNA 2 with G27A, U29A, C52A, G53C, C54U
# B35: target 1 MT 5'PFS GUA 3'PFS UUG (mixed)
# RNA 1: B1 RNA 1
# RNA 2: B1 RNA 2 with U29A, C52U, G53U, C54G
# B36: target 1 C7A,U11G (mixed)
# RNA 1: B1 RNA 1
# RNA 2: B1 RNA 2 with U29A, U41G, C45A, G53C, C54G
# B37: target 1 MT 5'PFS GUA 3'PFS UUA (mixed)
# RNA 1: B1 RNA 1
# RNA 2: B1 RNA 2 with U29A, C52U, G53U, C54A
# B38: target 1 MT 5'PFS GUA 3'PFS UUC (mixed)
# RNA 1: B1 RNA 1
# RNA 2: B1 RNA 2 with U29A, C52U, G53U
# B39: target 1 MT 5'PFS GGG 3'PFS ACU (mixed)
# RNA 1: B1 RNA 1
# RNA 2: B1 RNA 2 with U28G, U29G, C52A, G53C, C54U
# B40: target 1 MT 5'PFS GUA 3'PFS UUU (mixed)
# RNA 1: B1 RNA 1
# RNA 2: B1 RNA 2 with U29A, C52U, G53U, C54U
# Biological target: T1, EsCas13d, nuclease-dead
# Assay: crRNA (strand 1, pre-loaded); Mg2+; 40 mM Tris-HCl pH 7.5, 150 mM NaCl, 6 mM MgCl2, 1 mM DTT, 0.1% Tween-20, 0.2 mg/ml BSA; 25 C; 10 min per concentration, then washed
# Conditions: tags: His6-TwinStrep-SUMO cleaved; N-terminal SNAP kept (SNAP-Surface 488); label: 3' end held by stalled T7 RNA polymerase
row,Binder,Kd [nM]
1,B1,19.8 ± 4.5
2,B2,14.4 ± 3.55
3,B3,42 ± 8
4,B4,67 ± 9
5,B5,5.05 ± 1.35
6,B6,45.5 ± 18
7,B7,12.3 ± 1.8
8,B8,23.5 ± 5.75
9,B9,91 ± 37
10,B10,~110
11,B11,27.5 ± 11
12,B12,~90
13,B13,17.5 ± 4.5
14,B14,39 ± 6
15,B15,19 ± 8
16,B16,27.5 ± 6
17,B17,19 ± 6
18,B18,35 ± 7
19,B19,21.5 ± 7
20,B20,14.9 ± 2.6

row,Binder,Kd [nM]
1,B21,16 ± 4
2,B22,~47
3,B23,3.4 ± 1.3
4,B24,15.9 ± 4.7
5,B25,13.8 ± 0.7
6,B26,5.6 ± 2.35
7,B27,75.5 ± 30.5
8,B28,9.1 ± 1.75
9,B29,19.5 ± 3.85
10,B30,46 ± 9
11,B31,20.6 ± 2.7
12,B32,18.5 ± 6.5
13,B33,12.4 ± 3.4
14,B34,15.5 ± 4
15,B35,8.11 ± 0.52
16,B36,13.4 ± 0.6
17,B37,9.85 ± 1.15
18,B38,9.25 ± 1.1
19,B39,14.2 ± 1.3
20,B40,8.21 ± 0.5
